Patent CN114641502A (SHANGHAI YINGMING BIOTECHNOLOGY CO LTD, dated 2022)

Tests used:
[1] = target: T1, 人TIGIT (full length, on cells) (human, UniProt Q495A1 22-244); assay: flow cytometry affinity on CHOK1 cells over-expressing human TIGIT, quantitative beads
T1 construct: whole, on cells; also called human TIGIT; hTIGIT
T1 sequence (looked up): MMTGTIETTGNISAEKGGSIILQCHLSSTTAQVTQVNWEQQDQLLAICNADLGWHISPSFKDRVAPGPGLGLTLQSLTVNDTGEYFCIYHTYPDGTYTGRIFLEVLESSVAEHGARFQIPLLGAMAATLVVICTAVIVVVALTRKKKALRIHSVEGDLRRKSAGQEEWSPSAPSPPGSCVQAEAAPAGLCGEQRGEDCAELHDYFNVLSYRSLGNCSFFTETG

W364-hPro1.ECD.His = target: T2, W364-hPro1.ECD.His (human, UniProt Q495A1 22-141); assay: SPR (Biacore 8K), antibody captured by anti-human IgG Fc, TIGIT ECD as analyte, 1:1 model
T2 construct: extracellular domain; Analyte in the SPR assay; 20 kDa used for molar concentration; also called W364-hPro1.ECD.his (Sino); 人TIGIT胞外结构域
T2 sequence (looked up): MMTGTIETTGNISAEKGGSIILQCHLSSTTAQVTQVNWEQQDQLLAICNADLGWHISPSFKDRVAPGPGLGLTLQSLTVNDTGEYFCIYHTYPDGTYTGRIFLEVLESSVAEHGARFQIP

[2] = target: T1, 人TIGIT (full length, on cells); assay: flow cytometry on 293F cells expressing human TIGIT
[3] = target: T3, 小鼠TIGIT (full length, on cells) (mouse, UniProt P86176 29-249); assay: flow cytometry on Flp-In CHO cells expressing mouse TIGIT
T3 construct: whole, on cells; also called mouse TIGIT; W364-FlpinCHO.mpro1.FL
T3 sequence (looked up): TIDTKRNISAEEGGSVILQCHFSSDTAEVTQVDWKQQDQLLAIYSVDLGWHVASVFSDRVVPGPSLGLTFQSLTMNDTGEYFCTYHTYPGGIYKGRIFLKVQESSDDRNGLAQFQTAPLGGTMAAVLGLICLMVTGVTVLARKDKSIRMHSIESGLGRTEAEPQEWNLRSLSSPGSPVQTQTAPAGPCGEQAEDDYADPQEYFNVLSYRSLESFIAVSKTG

[4] = target: T1, 人TIGIT (full length, on cells); assay: flow cytometry competition on 293F cells expressing human TIGIT; competitor CD155.ECD-mFc at 2 μg/mL
[5] = target: T1, 人TIGIT (full length, on cells); assay: cell-based or functional assay
[6] = target: T4, 食蟹猴TIGIT (full length, on cells) (cynomolgus monkey, UniProt A0A7N9I9V4 89-312); assay: flow cytometry on Flp-In CHO cells expressing cynomolgus TIGIT
T4 construct: whole, on cells; also called cynomolgus TIGIT; W364-FlpinCHO.cynopro1.FL
T4 sequence (A0A7N9I9V4 entry or part of it): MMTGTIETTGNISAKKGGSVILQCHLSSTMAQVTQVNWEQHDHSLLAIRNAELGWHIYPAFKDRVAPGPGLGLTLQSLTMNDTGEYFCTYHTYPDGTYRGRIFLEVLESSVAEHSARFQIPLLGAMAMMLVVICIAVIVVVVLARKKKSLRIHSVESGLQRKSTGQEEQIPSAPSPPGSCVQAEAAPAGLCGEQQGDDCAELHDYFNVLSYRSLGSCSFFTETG

B1: W3645-2.131.4-hIgG1L3 (antibody, V domains shown)
VH: QLQLQESGPGLVKPSETLSLTCAVSGGSITSSSYYWGWIRQPPGKGLEWIGSIFFSGITYYNPSLKSRVTVSVDTSKNQFSLKLSSVTAADTAIYYCARRGLGGILASGYFDYWGQGTLVTVSS
VL: QSALTQPASVSGSPGQSITISCTGTSNDVGGYNYVSWYQQHPGKAPRLLIFDVSNRRTGISNRFSGSKSGITASLTISGLQAEDEADYYCSSYTSISTLVVFGGGTKLTVL
notes: Fully human (OMT rat derived), human IgG1; also called WBP3645先导抗体; WBP3645最终先导抗体
Binder B1 has a Kd [1] of 0.027 nM, a Kd (W364-hPro1.ECD.His) of 0.75 nM and an EC50 [2] of 0.17 nM. The EC50 [3] was 0.14 nM, the IC50 [4] was 0.14 nM and the “ADCC EC50 (LDH release, PBMC effectors)” value [5] was 0.0019 nM. The “NFAT-荧光素酶报告基因 EC50” value [5] was 0.92 nM and the EC50 [6] was 0.05 nM.
